Assay [1] addresses Recombinant Protein A (UniProt P38507). The assay can be described thus: MetaSPR; double-layer (Ti-Ag-Au) nanocup array chip, 96-well; Protein A (20 µg/mL in CBS buffer) immobilised 16 h, blocked with 1% BSA; IgG 0.1-66.7 nM in PBS; 10 min association, 15 min dissociation.
The target is the same in assay [2]. The assay can be described thus: MetaSPR; single-layer (Ti-Au) nanocup array chip, 96-well; Protein A (20 µg/mL in CBS buffer) immobilised 16 h, blocked with 1% BSA; IgG 0.1-66.7 nM in PBS; 10 min association, 15 min dissociation.
For assay [3] the target is unchanged. The assay is described as follows: MetaSPR; quantitative detection by differential absorption spectra, dual-wavelength OD difference (OD615-OD590); triple-layer chip; Protein A immobilised; IgG 0-10 µg/mL.
The target is the same in assay [4]. The assay can be described thus: MetaSPR; quadruple-layer (Ti-Ag-Au-Ag-Au) nanocup array chip, 96-well; Protein A (20 µg/mL in CBS buffer) immobilised 16 h, blocked with 1% BSA; IgG 0.1-66.7 nM in PBS; 10 min association, 15 min dissociation.
Assay [5] has the same target. The assay can be described thus: MetaSPR; triple-layer (Ti-Au-Ag-Au) nanocup array chip, 96-well; Protein A (20 µg/mL in CBS buffer) immobilised 16 h, blocked with 1% BSA; IgG 0.1-66.7 nM in PBS; 10 min association, 15 min dissociation.

One may read the Kd as a measure of binding affinity in units of concentration. Regarding “Immunoglobulin Antigen (Human IgG) (antibody)”, the dissociation constant Kd in the assay with Recombinant Protein A [1] amounted to 0.116 nM; in the assay with Recombinant Protein A [2], 0.24 nM; in the assay with Recombinant Protein A [4] it was 0.218 nM; with Recombinant Protein A [5] it was 0.122 nM. In addition, in the assay with Recombinant Protein A [3], the maximum reaction value (dual-wavelength OD difference) at the highest IgG concentration (10 µg/mL) was 0.435.

(Values after paper PMC11633510.)
